Experiments:
[1] = biological target: T1, human PD-L1 (cell surface) (human, UniProt Q9NZQ7); assay: FACS
[2] = biological target: mouse PD-L1 (cell surface) (mouse, UniProt Q9EP73); assay: FACS, Hepa1-6 cells
[3] = biological target: T1, human PD-L1 (cell surface); assay: FACS; remark: listed apart in the source
[4] = biological target: T1, human PD-L1 (cell surface); assay: FACS; remark: listed apart in the source
human PD-L1 ECD = human PD-L1 ECD (human, UniProt Q9NZQ7); assay: BLI
[5] = biological target: T1, human PD-L1 (cell surface); assay: FACS, T24 cells
[6] = biological target: T1, human PD-L1 (cell surface); assay: FACS, T24 cells; remark: listed apart in the source

T1 sequence (Q9NZQ7 19-238): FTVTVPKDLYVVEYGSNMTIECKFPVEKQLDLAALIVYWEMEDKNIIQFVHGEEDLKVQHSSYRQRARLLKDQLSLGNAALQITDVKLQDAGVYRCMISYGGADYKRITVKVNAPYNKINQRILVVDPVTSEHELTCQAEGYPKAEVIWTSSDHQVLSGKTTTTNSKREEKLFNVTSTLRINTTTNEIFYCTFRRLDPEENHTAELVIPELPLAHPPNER
mouse PD-L1 (cell surface), sequence (Q9EP73 19-238): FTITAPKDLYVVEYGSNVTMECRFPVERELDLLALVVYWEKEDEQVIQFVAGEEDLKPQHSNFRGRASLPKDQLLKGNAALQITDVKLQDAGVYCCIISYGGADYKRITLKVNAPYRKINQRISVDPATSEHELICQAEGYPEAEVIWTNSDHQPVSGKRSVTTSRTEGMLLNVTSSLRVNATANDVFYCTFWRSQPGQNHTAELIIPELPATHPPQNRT
human PD-L1 ECD, sequence (Q9NZQ7 19-238): as the sequence (Q9NZQ7 19-238) above

B1: 5F8-hv8 (antibody, V domains shown)
VH: EVQLVESGGGLVQPGGSLRLSCAASGFDFSDTHMSWVRQAPGKERELVAIITSGGSTDYVDSVKGRFTISRDNSKNTLYLQMNSLRAEDTAVYYCNARRTTIYWGQGTQVTVSS
[1]
  EC50: 0.69 nM
[2]
  binding result: no binding

B2: R2-5C12 (antibody, V domains shown)
VH: QVQLVESGGGLVQAGGSLRLSCAASGFSASDVVMAWYRQAPGKQREFVANIAARGSTDYANSVKGRFTISRDNAKNTVYLQMNSLKSDDTAVYYCNALVWNGSSYNNWGQGTQVTVSS
[3]
  EC50: 0.22 nM
[4]
  EC50: 0.24 nM
Human PD-L1 ECD
  Kd: 5.01 nM
[5]
  EC50: 0.078 nM

B3: Avastin (antibody, V domains shown)
VH: EVQLVESGGGLVQPGGSLRLSCAASGYTFTNYGMNWVRQAPGKGLEWVGWINTYTGEPTYAADFKRRFTFSLDTSKSTAYLQMNSLRAEDTAVYYCAKYPHYYGSSHWYFDVWGQGTLVTVSS
VL: DIQMTQSPSSLSASVGDRVTITCSASQDISNYLNWYQQKPGKAPKVLIYFTSSLHSGVPSRFSGSGSGTDFTLTISSLQPEDFATYYCQQYSTVPWTFGQGTKVEIK
[6]
  binding result: no binding

Source: patent US20260365734 (published 2026)
